Results as given in the supplement of paper PMC7877785.
± gives the uncertainty stated by the source.

Test: self-splicing fitness, log relative to wild type (ln ratio); higher = more splicing; Tetrahymena group I intron in knt gene, E. coli kanamycin selection, DiMSum; sequences stand for … in CUCUCU…GGAGGGAAAAGUUAUCAGGCAUGCACCUGGUAGCUAGUCUUUAAACCAAUAGAUUGCAUCGGUUUAAAAGGCAAGACCGUCAAAUUGCGGGAAAGGGGUCAACAGCCGUUCAGUACCAAGUCUCAGGGGAAACUUUGAGAUGGCCUUGCAAAGGGUAUGGUAAUAAGCUGACGGACAUGGUCCUAACCACGCAGCCAAGUCCUAAGUCAACAGAUCUUCUGUUGAUAUGGAUGCAGUUCACAGACUAAAUGUCGGUCGGGGAAGAUGUAUUCUUCUCAUAAGAUAUAGUCGGACCUCUCCUUAAUGGGAGCUAGCGGAUGAAGUGAUGCAACACUGGAGCCGCUGGGAACUAAUUUGUAUGCGAAAGUAUAUUGAUUAGUUUUGGAGUACUCGUGGUCG
How it was run: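 The eight P1ex-region nucleotides of an intron in the knt kanamycin-resistance gene on pET-22b(+) were all randomised and the library put into E. coli BL21(DE3). Six replicate transformations were grown overnight at 37°C or 30°C on LB agar with or without 25 μg/mL kanamycin, together with 100 μg/mL carbenicillin, 50 μM IPTG and 0.2% rhamnose. Colonies were pooled and amplicon-sequenced on an Illumina HiSeq 2500. Fitness from DiMSum is the error-weighted combination of wild-type-normalised replicate fold changes, kanamycin over none.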

Row | Sequence | self-splicing fitness (ln) (30 °C) | self-splicing fitness (ln) (37 °C)
1 | GGCUAGCAAUAUUACGGAGU | -2.86 ± 0.1 | -2.02 ± 0.13
2 | AGGUAGCAAUAUUACGACUC | -0.66 ± 0.018 | -0.19 ± 0.037
3 | GUCUAGCAAUAUUACGCCUC | -0.0816 ± 0.058 | -0.181 ± 0.068
4 | GGUAAGCAAUAUUACGGUAG | -3.72 ± 0.19 | -3.15 ± 0.23
5 | AAAGAGCAAUAUUACGUCAG | -4.01 ± 0.36 | -2.29 ± 0.32
6 | CCGAAGCAAUAUUACGUGUC | -3.49 ± 0.23 | -1.34 ± 0.16
7 | CUACAGCAAUAUUACGCGCC | -3.98 ± 0.35 | -2.3 ± 0.41
8 | CCGAAGCAAUAUUACGGCGA | -2.69 ± 0.3 | -2.53 ± 0.32
9 | GAACAGCAAUAUUACGGCUG | -2.78 ± 0.14 | -2.06 ± 0.15
10 | CUUGAGCAAUAUUACGGUGU | -3 ± 0.13 | -3.01 ± 0.18
11 | ACAAAGCAAUAUUACGUGCA | -0.78 ± 0.057 | -0.154 ± 0.074
12 | AAAGAGCAAUAUUACGUUGU | -3.11 ± 0.13 | -2.51 ± 0.2
13 | UUCUAGCAAUAUUACGGCUC | -1.38 ± 0.14 | -0.913 ± 0.2
14 | CGCGAGCAAUAUUACGAUAC | -3.81 ± 0.3 | -2.56 ± 0.28
15 | GCACAGCAAUAUUACGUGUG | -3.68 ± 0.16 | -2.22 ± 0.14
16 | CUAUAGCAAUAUUACGGACC |  | -1.23 ± 0.34
17 | GCUAAGCAAUAUUACGCGGC | -0.424 ± 0.19 | -2.64 ± 0.5
18 | GUGGAGCAAUAUUACGUUAU | -3.23 ± 0.26 | -0.612 ± 0.14
19 | GUCUAGCAAUAUUACGGAAC | -1.15 ± 0.26 | 1.15 ± 0.16

Row | Sequence | self-splicing fitness (ln) (30 °C) | self-splicing fitness (ln) (37 °C)
20 | AGUUAGCAAUAUUACGGCCC | -0.803 ± 0.33 | 
21 | CUGUAGCAAUAUUACGCAAG | -2.47 ± 0.12 | -1.56 ± 0.11
22 | UCACAGCAAUAUUACGUUUG | -2.21 ± 0.08 | -1.2 ± 0.11
23 | UGGAAGCAAUAUUACGGUCU | -1.94 ± 0.14 | 0.0438 ± 0.16
24 | AGUUAGCAAUAUUACGUUGC | -4.72 ± 0.41 | -2.21 ± 0.21
25 | AUCCAGCAAUAUUACGUAUA | -0.94 ± 0.11 | -1.11 ± 0.14
26 | AAAGAGCAAUAUUACGGGCC | -2.09 ± 0.3 | -1.86 ± 0.41
27 | AUUCAGCAAUAUUACGGCCA | -0.32 ± 0.21 | -0.225 ± 0.21
28 | AGGUAGCAAUAUUACGACCC | -2.38 ± 0.047 | -1.69 ± 0.064
29 | GGGAAGCAAUAUUACGUGUA | -1.96 ± 0.14 | -0.669 ± 0.11
30 | UGCCAGCAAUAUUACGAGAC | -3.05 ± 0.2 | -2.05 ± 0.26
31 | CUCAAGCAAUAUUACGUAAA | -3.37 ± 0.18 | -2.48 ± 0.25
32 | UUAGAGCAAUAUUACGGCAU | -2.51 ± 0.28 | -1.16 ± 0.23
33 | UGUCAGCAAUAUUACGGGUU | -2.31 ± 0.1 | -1.07 ± 0.11
34 | GUAAAGCAAUAUUACGUUUG | -2.28 ± 0.081 | -1.34 ± 0.094
35 | ACAGAGCAAUAUUACGGCUA | -3.1 ± 0.23 | -1.41 ± 0.14
36 | GUUCAGCAAUAUUACGAGGU | -2.25 ± 0.12 | -0.472 ± 0.13
37 | UCAGAGCAAUAUUACGAAAU | -3.56 ± 0.32 | -2.11 ± 0.46
38 | CCUAAGCAAUAUUACGCUAG | -3.75 ± 0.47 | -1.64 ± 0.3
